Laboratory results as given in patent US20220064286A1.

Assays:
[1] = target: hTIGIT mutant Y113A (human) (UniProt Q495A1); test: SPR (BIACORE) KD normalized to WT, N=2
[2] = target: hTIGIT mutant Q53A (human) (UniProt Q495A1); test: SPR (BIACORE) KD normalized to WT, N=2
[3] = target: hTIGIT mutant Y113A (human) (UniProt Q495A1); test: SPR (BIACORE), N=2
[4] = target: hTIGIT mutant Q53A (human) (UniProt Q495A1); test: SPR (BIACORE), N=2
[5] = target: hTIGIT mutant H76A (human) (UniProt Q495A1); test: SPR (BIACORE) KD normalized to WT, N=2
[6] = target: hTIGIT mutant L73A (human) (UniProt Q495A1); test: SPR (BIACORE) KD normalized to WT, N=2
[7] = target: hTIGIT mutant H76A (human) (UniProt Q495A1); test: SPR (BIACORE), N=2
[8] = target: hTIGIT mutant L73A (human) (UniProt Q495A1); test: SPR (BIACORE), N=2
[9] = target: hTIGIT mutant N70A (human) (UniProt Q495A1); test: SPR (BIACORE) KD normalized to WT, N=2
[10] = target: hTIGIT mutant N70A (human) (UniProt Q495A1); test: SPR (BIACORE), N=2

Chain of hTIGIT mutant Y113A (human) (Q495A1 22-141 Y113A limits assumed): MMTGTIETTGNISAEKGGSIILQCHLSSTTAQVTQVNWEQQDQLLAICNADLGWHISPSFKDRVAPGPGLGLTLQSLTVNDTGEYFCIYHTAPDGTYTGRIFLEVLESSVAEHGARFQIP
Chain of hTIGIT mutant Q53A (human) (Q495A1 22-141 Q53A limits assumed): as the sequence (Q495A1 22-141 Y113A limits assumed) above, with Q32A, A92Y counted along it
Chain of hTIGIT mutant H76A (human) (Q495A1 22-141 H76A limits assumed): as the sequence (Q495A1 22-141 Y113A limits assumed) above, with H55A, A92Y counted along it
Chain of hTIGIT mutant L73A (human) (Q495A1 22-141 L73A limits assumed): as the sequence (Q495A1 22-141 Y113A limits assumed) above, with L52A, A92Y counted along it
Chain of hTIGIT mutant N70A (human) (Q495A1 22-141 N70A limits assumed): as the sequence (Q495A1 22-141 Y113A limits assumed) above, with N49A, A92Y counted along it

B1: 7.4A3.C96S.Q1E (antibody, V domains shown)
VH: EVQLVQSGSDLKKPGASVRVSCKASGYTFTSYPMNWVRQAPGHGLEWMGWINTNTGNPTYVQGFTGRFVFSLDTSVNTAYLQISSLKAEDTAVYFCARTGGHTYDSYAFDVWGQGTMVTVSS
VL: DIQLTQSPTFLSASVGDRVTITCRASQVISSSLAWYQQNPGKAPKLLIYAASTLQSGVPSRFSGSGSGTEFTLTISSLQPEDFVTYYCQHLHGYPSNFGQGTKVEIK
Binding affinity drop vs. WT [1]: > 56 fold
Binding affinity drop vs. WT [2]: > 56 fold
Kd [3]: > 100 nM
Kd [4]: > 100 nM

B2: h6B2.L2H5 (antibody, V domains shown)
VH: EVTLKESGPALVKPTQTLTLTCTFSGFSLSTYGMGVSWIRQPPGKALEWLASIWWNGNTYYNPSLKSRLTITKDTSKNQVVLTMTNMDPVDTATYYCAHTGGAVITWFAYWGQGTLVTVSS
VL: DIQMTQSPSSLSASVGDRVTITCKASQSVGKNIAWYQQKPGKAPKLLIYYASNRYTGVPSRFSGSGSGTDFTFTISSLQPEDIATYYCQHIYNSPYPFGQGTKVEIK
Binding affinity drop vs. WT [5]: > 143 fold
Binding affinity drop vs. WT [6]: > 143 fold
Kd [7]: > 100 nM
Kd [8]: > 100 nM

B3: 4.1A4.C96S.Q1E (antibody, V domains shown)
VH: EVQLVQSGSELKKPGASVKVSCKASGYTLTNYPMNWVRQAPGRGLEWMGWINTNTGSPAYAQDFTERFVFSLDTSVTTAYLQISSLKAEDTAVYYCARTAITSVYHFDYWGQGTLVTVSS
VL: DIQLTQSPSFLSASVGDRVTITCRASQGISSYLAWYQQKPGKAPRVLIYGATTLQSGVPSRFSGSESGTEFTLTISSLQPEDLATYYCQKLNSHPSSFGQGTKVEIK
Binding affinity drop vs. WT [1]: > 16.2 fold
Binding affinity drop vs. WT [9]: > 16.2 fold
Binding affinity drop vs. WT [2]: > 16.2 fold
Kd [3]: > 500 nM
Kd [10]: > 500 nM
Kd [4]: > 500 nM
